Reference: the nanobody polyreactivity screen of Harvey et al. (2022)

Experiment: yeast display, Sf9 membrane polyspecificity reagent, FACS + sequencing; frameworks hold sequencing errors
In short: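 Nanobodies came from a synthetic yeast display library in Saccharomyces cerevisiae BJ5465, induced with galactose for 36–48 hours and stained for 1 hour at 4 °C with 10% biotinylated, detergent-solubilized Sf9 membrane reagent. Cells were enriched on streptavidin microbeads and then FACS-sorted, with low and high (top ~1%) gates set on anti-HA fluorescence for expression and streptavidin fluorescence for reagent binding. Each polyreactivity label reflects the gate a clone came from. Genes were amplified by colony PCR, sequenced by MiSeq 2 × 250 and filtered by CDR length.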

| Sequence | polyreactivity (PSR sort gate) |
| --- | --- |
| QVQLVESGGGLVQAGGSLRLSCAASGITFLKNAMGWYRQAPGKERELVAAISSSGGSTYYADSVKGRFTISRDNAKNTVYLQMNSLKPEDTAVYFCAARIYWYTPGRRGYTYDYWGQGTQVTVSS | high polyreactivity |
| QFQLVESGGGLVQAGGSLRLSCAASGIIFYENNMGWYRQAPGKERELVAAINSGGSTYYADSVKGRFTISRDNAKNTVYLQMNSLKPEDTAVYYCDADDYSGLYYSSTYRYEYWGQGTQVTVSS | low polyreactivity |
| QVQLVESGGGLVQAGGSLRLSCAASAGTFNHYAMGWSRQEPGKERELVASITNGASTYYADSVKGRFTISRDNAKNTVYLQMNILKPEDTAVYYCAKRGRVGKYRYEYWGQGTLVTVSS | low polyreactivity |
| QVQLVESGGGLVQAGGSLRLSCAASGRIFGVYAMGWYRQAPGKERELVADISWSGSGTYADSVKGRFTISRDNAKNTVYLQMMSLKPEDTAVYYCNVDPAQIHAGYVGYDYWGQGTQVTVSS | low polyreactivity |
| QVQLVESGGGLVQAGGSLRLTCAASGRNFRAYAMGWYRQAPGKERELVAAISTSGGSTRYADSVKGRFTISRDNAKNTVYLQMNSLKPEDTAVYYCARYTTRTYEYNYWGQGTQVTVSS | high polyreactivity |
| QVQLVESGGGLVQAGGSLRLSCAASGQKFEYNAMVWYRQAPRKERELVAVITYTYYADSVKGRFTISRDNAKNTVYLLMNCLKPEATAVYYCAVLYSEEILRNDNGVRFDYWGQGTQVTVSS | low polyreactivity |
| QVQLVESGAGLVQAGGSLRLSCAASGSIYTLNAMGWYRQAPGKEMELVAAITSSGTGTYYADSVKGRFTISRDNAKNTVYLQMNSLKPEDTAVYYCAKDRPYWLSYGSWFKFNYWGQGTQVTVSS | low polyreactivity |
| QVQLVESGGGLVQAGGSLRLSCAASGRTFYLNAMGWYRQAPGKERELVAAISRNGGSTYYADSVKGRFTISRDNAKNTVYLQMNSLKPEDTAVYYCNKNWLGWADPSLDKRYDYWGQGTQVTVSS | high polyreactivity |
| QVQLVESGGGLVQAGGSLRLSCAASGRIFLLNPMGWNRQATGKERELVARNSSGRTYYADSVKGRFTISRVNAKNTVYLHMKSLKPEDTAVYYCNATVSSSKYRYFYVNPYDYWGQGTQVTVSS | low polyreactivity |
| QVQLVESGGGLVQAGGSLRLSCAASGFILLYYAMGWYRQAPGKERELVAAISWTGGRTYYADSVKGRFTISRDNAKNTVYLQMNSLKPEDTAVYYCNTVKFFGRKYGYWGQGTQVTVSS | low polyreactivity |
| QVQLVESGGGLVQAGGSLRLSCAASGGTFFYNAMGWYRQAPGKERELVAAINGGTSTNYADSVKGRFTISRDNAKNTVYLQMNSLKPEDTAVYYCAAVYRRLGRYDWYDYWGQGTQVTVSS | low polyreactivity |
| QVQLVESGGGLVQAGGTLRLSCADSGLTFAKYAMGWYRQAPGKERQLVAAISRSGGSTYYADSVKGRFTISRDNAKNTVYLQINSLKPEDTARFYCPKSSGTLWITKYDYWGQGTQVTVSS | low polyreactivity |
| QVQLVESGGGLVQAGGSLRLSCAASGITFVKNVMGWYRQAPGKERELVAAISTIGARTYYADSVKGRFTISRDNAKNTVYLQMNSLKPEDTAVYYCAAENYPRRPRYDYWGQGTQVTVSS | high polyreactivity |
| QVQLVESGGGLVQAGGSLRLSCAASGSISFSNAMGWYRQAPGKERELVASITSGGSTKYADSVKGRFTISRDNAKNTVFLQMNSLKPEDTAVFYCAADGYDYWGQGTQVTVSS | low polyreactivity |
| QVQLVESGGGLVQAGGSLRLSCAASGFIFSSYAMGWYRQAPGKEREFVAVISTGGGSTYYADSVKGRFTISRDNAKITVYLQMNSLKPEDTAVYYCAAKLYDSGGRYWYDYWGQGTQVTVSS | high polyreactivity |
| QVQLEESGGGLVQAGGSLRLSCAASGSTFVVYAMGWYRQAPGKERELVAAISGRGGRTYYADSVKGRFTISRDNAKNTVYLQMISLKPEDTAVYYCSTRYNNLYTIRVGEYDSWGQGTQVTVSS | high polyreactivity |
